US20260116980A1

How the values were obtained:
B7H3 on H358 tumor cells [1] = biological target: B7H3 on H358 tumor cells (UniProt Q5ZPR3); assay: flow cytometry on H358 cells, His-tag antibody iFluor 488 detection; MFImax of the four parameter fit
B7H3 on H358 tumor cells [2] = biological target: B7H3 on H358 tumor cells (UniProt Q5ZPR3); assay: flow cytometry on H358 cells, His-tag antibody iFluor 488 detection, four parameter logistic model
B7H3 on H358 tumor cells [3] = biological target: B7H3 on H358 tumor cells (UniProt Q5ZPR3); assay: FACS on H358 cells, 1 h on ice, fluorescence-labelled anti-human Fc

B7H3 on H358 tumor cells, sequence (Q5ZPR3 29-534): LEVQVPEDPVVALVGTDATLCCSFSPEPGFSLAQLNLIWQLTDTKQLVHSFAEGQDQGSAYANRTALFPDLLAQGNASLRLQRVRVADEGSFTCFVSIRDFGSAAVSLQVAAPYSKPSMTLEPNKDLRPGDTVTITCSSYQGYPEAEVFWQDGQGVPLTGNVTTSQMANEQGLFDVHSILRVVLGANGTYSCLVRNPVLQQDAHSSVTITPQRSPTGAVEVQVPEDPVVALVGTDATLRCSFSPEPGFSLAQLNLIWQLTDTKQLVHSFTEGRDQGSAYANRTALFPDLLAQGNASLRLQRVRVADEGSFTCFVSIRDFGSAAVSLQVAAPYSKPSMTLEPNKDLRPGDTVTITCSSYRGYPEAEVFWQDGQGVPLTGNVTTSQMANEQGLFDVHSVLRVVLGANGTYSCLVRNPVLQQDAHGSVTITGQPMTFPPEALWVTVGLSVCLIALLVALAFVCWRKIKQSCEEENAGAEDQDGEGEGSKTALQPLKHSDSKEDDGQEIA

Row | MFI (B7H3 on H358 tumor cells [1]) | EC50 (B7H3 on H358 tumor cells [2]) [nM] | EC50 (read off the curve) (B7H3 on H358 tumor cells [3]) [nM] | Binder
1 | 782000 | 2.05 |  | scFv of BGA-6938 VL-VH (scFv) scFv: EIVLTQSPGTLSLSPGERATLSCRTSQSINAILLAWYQQKPGQAPRLLIYGASSRATGIPDRFSGSGSGTDFTLSISRLEPEDFAVYYCQQYGSSPRTFGQGTKVEIKGGGGSGGGGSGGGGSGGGGSQVQLQESGPGLVKPSGTLSLTCAVSGGSISTSNYWNWVRQSPGKGLEWIGEIYPTGNTNYSPSLKSRVTISIDKSKNQFSLKLNSVTAADTAVYYCARGYNWFDPWGQGTLVTVSSHHHHHH
2 |  |  | 0.5 | BGA-6938 in wildtype IgG1/kappa format (antibody, V domains shown) VH: QVQLQESGPGLVKPSGTLSLTCAVSGGSISTSNYWNWVRQSPGKGLEWIGEIYPTGNTNYSPSLKSRVTISIDKSKNQFSLKLNSVTAADTAVYYCARGYNWFDPWGQGTLVTVSS VL: EIVLTQSPGTLSLSPGERATLSCRTSQSINAILLAWYQQKPGQAPRLLIYGASSRATGIPDRFSGSGSGTDFTLSISRLEPEDFAVYYCQQYGSSPRTFGQGTKVEIKR
